# Measurements: patent US20120040375A1 (NATIONAL UNIVERSITY CORPORATION HOKKAIDO UNIVERSITY, published 2012)
# Key:
# Biotin-Tn(DT*R)-100 = target: T1, Biotin-Tn(DT*R)-100 (N-terminal Biotin-PEG-linker; Thr(GalNAcα) in each Asp-Thr-Arg (5 sites); C-terminal amide (NH2)); assay: SPR, Biacore T100, Biotin-Tn(DT*R)-100 on sensor chip SA
# T1 construct: also called Compound No. 21; Compound 21
# [1] = target: T2, biotin-labeled T-47D culture supernatant (MUC1) (human, UniProt P15941 24-1097, limits assumed, biotin-labeled with Sulfo-NHS-Biotin); assay: SPR, Biacore, biotin-labeled T-47D culture supernatant on sensor chip SA
# T2 construct: The whole concentrated supernatant was biotinylated and put on the chip
# T2 sequence (P15941 24-1097 limits assumed): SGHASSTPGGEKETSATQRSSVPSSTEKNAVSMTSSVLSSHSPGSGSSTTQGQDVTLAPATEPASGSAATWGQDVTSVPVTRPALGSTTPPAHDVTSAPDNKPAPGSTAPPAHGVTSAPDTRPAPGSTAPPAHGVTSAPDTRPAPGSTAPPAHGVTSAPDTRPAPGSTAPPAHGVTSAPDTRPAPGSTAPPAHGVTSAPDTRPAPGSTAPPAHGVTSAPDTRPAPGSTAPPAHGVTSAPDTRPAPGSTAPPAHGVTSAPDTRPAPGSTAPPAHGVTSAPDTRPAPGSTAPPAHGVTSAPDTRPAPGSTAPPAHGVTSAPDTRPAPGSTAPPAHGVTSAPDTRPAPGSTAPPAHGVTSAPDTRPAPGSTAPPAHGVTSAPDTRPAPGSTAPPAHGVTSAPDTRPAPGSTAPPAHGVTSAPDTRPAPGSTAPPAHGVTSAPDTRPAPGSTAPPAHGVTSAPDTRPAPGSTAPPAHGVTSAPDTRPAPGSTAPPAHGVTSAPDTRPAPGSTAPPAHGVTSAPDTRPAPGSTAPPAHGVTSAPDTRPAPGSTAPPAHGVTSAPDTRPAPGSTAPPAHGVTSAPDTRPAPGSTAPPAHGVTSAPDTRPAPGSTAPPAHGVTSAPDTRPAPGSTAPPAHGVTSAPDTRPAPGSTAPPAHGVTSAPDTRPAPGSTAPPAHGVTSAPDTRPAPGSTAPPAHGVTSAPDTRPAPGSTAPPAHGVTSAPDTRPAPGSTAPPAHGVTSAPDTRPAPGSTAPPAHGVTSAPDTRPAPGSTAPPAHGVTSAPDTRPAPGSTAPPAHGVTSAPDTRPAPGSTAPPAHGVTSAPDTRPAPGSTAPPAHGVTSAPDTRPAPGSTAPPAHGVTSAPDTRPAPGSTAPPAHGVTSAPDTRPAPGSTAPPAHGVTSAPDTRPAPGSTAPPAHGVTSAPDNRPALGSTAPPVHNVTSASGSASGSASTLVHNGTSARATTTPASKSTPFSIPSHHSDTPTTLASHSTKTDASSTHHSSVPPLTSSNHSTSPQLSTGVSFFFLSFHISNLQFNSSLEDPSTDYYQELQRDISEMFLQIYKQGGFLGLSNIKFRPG
# T1 sequence (peptide, as listed by the source limits assumed): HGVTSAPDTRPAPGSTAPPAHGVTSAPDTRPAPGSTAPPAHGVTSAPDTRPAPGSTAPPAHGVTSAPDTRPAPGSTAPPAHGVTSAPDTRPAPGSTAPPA
binder,measurement,setting,value
"PankoMab (antibody, V domains shown) VH: EVQLVESGGGLVQPGGSMRLSCVASGFPFSNYWMNWVRQAPGKGLEWVGEIRLKSNNYTTHYAESVKGRFTISRDDSKNSLYLQMNSLKTEDTAVYYCTRHYYFDYWGQGTLVTVSS VL: DIVMTQSPLSNPVTPGEPASISCRSSKSLLHSNGITYFFWYLQKPGQSPQLLIYQMSNLASGVPDRFSGSGSGTDFTLRISRVEAEDVGVYYCAQNLELPPTFGQGTKVEIKR",Kd,Biotin-Tn(DT*R)-100,1500 nM
same,koff,Biotin-Tn(DT*R)-100,0.19 s⁻¹
same,kon,Biotin-Tn(DT*R)-100,120000 M⁻¹ s⁻¹
same,Kd,[1],100 nM
same,koff,[1],0.045 s⁻¹
same,kon,[1],440000 M⁻¹ s⁻¹
